Experimental data from PMC9156758.

Key:
[1] = biological target: A2ML1-CC (TEV-P-cleaved A2ML1t with covalently conjugated TEV-P) (human | tobacco etch virus) (UniProt A8K2U0); assay: cryo-EM structure; TEV-P-cleaved A2ML1t samples on grids; monomers and dimers separated by 2D classification, multi-class ab initio reconstruction and heterogeneous refinement
[2] = biological target: TEV-P-cleaved A2ML1t prepared in the presence of BAPN, without conjugated TEV-P (human) (UniProt A8K2U0); assay: as above

TEV-P-cleaved A2ML1t prepared in the presence of BAPN, without conjugated TEV-P, sequence (A8K2U0 19-1454): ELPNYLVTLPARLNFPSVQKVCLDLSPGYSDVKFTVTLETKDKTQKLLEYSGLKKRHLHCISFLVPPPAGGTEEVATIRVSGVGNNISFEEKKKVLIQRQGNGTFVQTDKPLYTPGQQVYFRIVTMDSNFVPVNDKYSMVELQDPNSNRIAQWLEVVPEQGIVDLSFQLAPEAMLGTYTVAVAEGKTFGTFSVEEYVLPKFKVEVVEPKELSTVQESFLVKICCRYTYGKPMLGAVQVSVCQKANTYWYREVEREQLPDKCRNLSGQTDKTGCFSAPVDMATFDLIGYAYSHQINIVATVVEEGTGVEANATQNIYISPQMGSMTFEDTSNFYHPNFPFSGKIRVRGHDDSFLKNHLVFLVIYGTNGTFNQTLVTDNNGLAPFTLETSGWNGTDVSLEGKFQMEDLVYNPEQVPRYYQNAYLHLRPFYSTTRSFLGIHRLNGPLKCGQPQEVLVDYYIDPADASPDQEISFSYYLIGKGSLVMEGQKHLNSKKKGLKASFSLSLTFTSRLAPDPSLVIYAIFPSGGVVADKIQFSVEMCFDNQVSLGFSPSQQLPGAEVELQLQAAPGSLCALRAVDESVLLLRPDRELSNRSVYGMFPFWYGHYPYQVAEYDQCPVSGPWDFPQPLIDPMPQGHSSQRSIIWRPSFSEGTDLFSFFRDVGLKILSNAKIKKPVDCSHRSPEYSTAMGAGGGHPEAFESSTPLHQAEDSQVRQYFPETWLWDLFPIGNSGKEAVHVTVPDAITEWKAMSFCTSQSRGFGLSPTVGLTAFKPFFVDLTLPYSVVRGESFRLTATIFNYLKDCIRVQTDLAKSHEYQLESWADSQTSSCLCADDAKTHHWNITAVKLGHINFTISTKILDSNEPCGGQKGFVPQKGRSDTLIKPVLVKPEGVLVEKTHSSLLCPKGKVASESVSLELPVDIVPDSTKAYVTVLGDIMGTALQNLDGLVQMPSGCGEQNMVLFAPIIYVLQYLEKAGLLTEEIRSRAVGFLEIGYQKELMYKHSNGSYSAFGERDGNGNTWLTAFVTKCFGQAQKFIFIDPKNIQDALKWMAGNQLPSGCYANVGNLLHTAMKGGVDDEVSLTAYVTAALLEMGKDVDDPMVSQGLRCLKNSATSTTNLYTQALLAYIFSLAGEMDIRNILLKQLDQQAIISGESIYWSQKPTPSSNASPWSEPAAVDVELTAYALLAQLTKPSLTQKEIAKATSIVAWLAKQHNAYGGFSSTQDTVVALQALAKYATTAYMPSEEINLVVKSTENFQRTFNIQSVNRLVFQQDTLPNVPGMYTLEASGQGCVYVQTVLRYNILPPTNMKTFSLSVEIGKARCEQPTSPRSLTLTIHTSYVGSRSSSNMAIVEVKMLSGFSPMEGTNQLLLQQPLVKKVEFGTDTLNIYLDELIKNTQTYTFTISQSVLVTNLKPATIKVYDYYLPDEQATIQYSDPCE
TEV-P-cleaved A2ML1t prepared in the presence of BAPN, without conjugated TEV-P, sequence (A8K2U0 19-1454): as above
A2ML1-CC (TEV-P-cleaved A2ML1t with covalently conjugated TEV-P), sequence (A8K2U0 whole entry, looked up, one chain of several): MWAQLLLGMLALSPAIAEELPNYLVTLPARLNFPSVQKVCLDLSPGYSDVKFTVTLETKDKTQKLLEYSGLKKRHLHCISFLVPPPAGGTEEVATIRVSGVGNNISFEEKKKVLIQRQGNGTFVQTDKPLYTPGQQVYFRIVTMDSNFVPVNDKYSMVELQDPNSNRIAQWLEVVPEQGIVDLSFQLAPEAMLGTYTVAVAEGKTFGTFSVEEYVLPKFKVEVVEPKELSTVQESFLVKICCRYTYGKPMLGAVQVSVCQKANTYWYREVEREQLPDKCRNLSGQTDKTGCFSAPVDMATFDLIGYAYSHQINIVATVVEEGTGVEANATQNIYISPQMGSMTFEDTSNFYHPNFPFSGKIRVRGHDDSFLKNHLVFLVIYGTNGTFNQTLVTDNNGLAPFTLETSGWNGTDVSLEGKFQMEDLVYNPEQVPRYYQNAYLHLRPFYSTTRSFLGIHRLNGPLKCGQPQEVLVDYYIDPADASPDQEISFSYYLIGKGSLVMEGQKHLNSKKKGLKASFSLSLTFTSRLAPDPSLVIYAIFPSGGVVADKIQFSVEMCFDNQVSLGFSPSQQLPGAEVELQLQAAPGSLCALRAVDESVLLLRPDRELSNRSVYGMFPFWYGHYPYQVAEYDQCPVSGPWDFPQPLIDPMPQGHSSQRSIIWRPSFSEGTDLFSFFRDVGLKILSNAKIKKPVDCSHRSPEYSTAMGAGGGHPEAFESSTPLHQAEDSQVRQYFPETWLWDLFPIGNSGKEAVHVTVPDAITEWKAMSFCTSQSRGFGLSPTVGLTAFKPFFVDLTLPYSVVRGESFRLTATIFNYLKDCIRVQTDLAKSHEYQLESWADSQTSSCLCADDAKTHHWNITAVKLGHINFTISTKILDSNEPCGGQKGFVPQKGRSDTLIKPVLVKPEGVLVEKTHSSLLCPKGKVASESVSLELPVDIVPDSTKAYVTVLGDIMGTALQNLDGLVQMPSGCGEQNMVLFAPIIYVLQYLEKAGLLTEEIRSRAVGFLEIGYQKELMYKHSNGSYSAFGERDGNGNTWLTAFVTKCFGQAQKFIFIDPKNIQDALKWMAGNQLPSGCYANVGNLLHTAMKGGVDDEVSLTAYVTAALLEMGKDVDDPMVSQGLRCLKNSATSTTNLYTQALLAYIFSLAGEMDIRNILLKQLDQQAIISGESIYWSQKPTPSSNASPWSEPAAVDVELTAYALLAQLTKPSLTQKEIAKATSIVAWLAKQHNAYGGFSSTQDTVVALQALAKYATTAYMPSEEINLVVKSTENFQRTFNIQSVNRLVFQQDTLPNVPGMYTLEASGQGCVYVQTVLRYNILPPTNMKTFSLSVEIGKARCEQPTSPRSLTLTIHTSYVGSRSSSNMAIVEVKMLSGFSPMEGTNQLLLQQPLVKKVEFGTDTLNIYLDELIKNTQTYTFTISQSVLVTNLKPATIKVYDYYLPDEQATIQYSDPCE

Substance | fraction of picked particles that were dimers (fraction of particles) [1] | fraction of picked particles that were dimers (fraction of particles) [2] | stoichiometry N [2]
A2ML1-CC (TEV-P-cleaved A2ML1t with covalently conjugated TEV-P) (from UniProt A8K2U0 19-1454; A8K2U0 19-1454) (complex) | 0.167 | – | –
TEV-P-cleaved A2ML1t prepared in the presence of BAPN, without conjugated TEV-P (from UniProt A8K2U0 19-1454; A8K2U0 19-1454) | – | 0.167 | 2
